One experiment has as its target HIV integrase fused to the VP16 activation domain (pEF-VP16, CHO cells). The experiment in a line: mammalian two-hybrid luciferase reporter assay in CHO cells. The conditions noted are these: 48 h after transfection; Firefly luciferase normalised to Renilla; parent: est. 1.4; read off a plot. For orientation: A reporter such as luciferase makes a cellular process visible.
As for “GAL4 DNA binding domain (DBD)-LEDGF IBD fusion (pM1, CHO cells) D366A”, the response worked out at 0.02.

As to “GAL4 DNA binding domain (DBD)-LEDGF IBD fusion (pM1, CHO cells) F406A”, the response is 0.04.

With “GAL4 DNA binding domain (DBD)-LEDGF IBD fusion (pM1, CHO cells) I365A”, the response worked out at 0.02.

Regarding “GAL4 DNA binding domain (DBD)-LEDGF IBD fusion (pM1, CHO cells) K364A”, the response amounted to 0.08.

As to “GAL4 DNA binding domain (DBD)-LEDGF IBD fusion (pM1, CHO cells) K402A”, the response was determined as 0.6.

Take “GAL4 DNA binding domain (DBD)-LEDGF IBD fusion (pM1, CHO cells) K407A”: the response was determined as 3.3.

With “GAL4 DNA binding domain (DBD)-LEDGF IBD fusion (pM1, CHO cells) L363A”, the response came out at 0.25.

Consider “GAL4 DNA binding domain (DBD)-LEDGF IBD fusion (pM1, CHO cells) L368A”, for which the response was determined as 0.01.

Consider “GAL4 DNA binding domain (DBD)-LEDGF IBD fusion (pM1, CHO cells) R405A”, for which the response is 1.3.

Consider “GAL4 DNA binding domain (DBD)-LEDGF IBD fusion (pM1, CHO cells) V408A”, for which the response is 0.4.

A further experiment has as its target GAL4 DNA binding domain (DBD)-LEDGF IBD fusion (pM1, CHO cells). The experiment in a line: two-hybrid; mammalian three-hybrid competition in CHO cells: GAL4 DBD-IBD bait, HIV IN-VP16 prey and a free competitor from pEF-BOS-cyto; Firefly/Renilla luciferase.
Details: not given
With “free HIV IN (competitor, pEF-BOS-cyto, CHO cells) (enzyme)”, the percent inhibition of the luciferase signal of HIV IN-VP16 with Gal4-IBD was 90%.

The values are drawn from PMC5715112.
